Measured values from the supplement of paper PMC9233669.
This sample holds only a part of the variants without activity.

Tests used:
biotinyl-Phe-oxazolone = assay: self-aminoacylation, catalytic enhancement (BFO) (fold over background); higher = more active; k-Seq, kA / k0A0; sequences stand for … in GGGAAUGGAUCCACAUCUACGAAUUC…UUCACUGCAGACUUGACGAAGCUG
Outline: (§1)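 Mutagenized RNA pools (0.43 μM; 21-nt variable region) were treated with 2–1250 μM of each biotinyl-aminoacyl-oxazolone. Conditions were 50 μL HEPES/NaCl/KCl/MgCl2/CaCl2 buffer, 5% acetonitrile, pH 6.9–7.0, room temperature, 90 minutes. Catalytic enhancement, the median kA relative to the uncatalyzed rate, was derived from streptavidin capture, qPCR and Illumina sequencing.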

biotinyl-Ile-oxazolone = assay: self-aminoacylation, catalytic enhancement (BIO) (fold over background); higher = more active; k-Seq, kA / k0A0; sequences stand for … in GGGAAUGGAUCCACAUCUACGAAUUC…UUCACUGCAGACUUGACGAAGCUG
Outline: as §1

biotinyl-Met-oxazolone = assay: self-aminoacylation, catalytic enhancement (BMO) (fold over background); higher = more active; k-Seq, kA / k0A0; sequences stand for … in GGGAAUGGAUCCACAUCUACGAAUUC…UUCACUGCAGACUUGACGAAGCUG
Outline: as §1

biotinyl-Val-oxazolone = assay: self-aminoacylation, catalytic enhancement (BVO) (fold over background); higher = more active; k-Seq, kA / k0A0; sequences stand for … in GGGAAUGGAUCCACAUCUACGAAUUC…UUCACUGCAGACUUGACGAAGCUG
Outline: as §1

biotinyl-Leu-oxazolone = assay: self-aminoacylation, catalytic enhancement (BLO) (fold over background); higher = more active; k-Seq, kA / k0A0; sequences stand for … in GGGAAUGGAUCCACAUCUACGAAUUC…UUCACUGCAGACUUGACGAAGCUG
Outline: as §1

biotinyl-Trp-oxazolone = assay: self-aminoacylation, catalytic enhancement (BWO) (fold over background); higher = more active; k-Seq, kA / k0A0; sequences stand for … in GGGAAUGGAUCCACAUCUACGAAUUC…UUCACUGCAGACUUGACGAAGCUG
Outline: as §1

Row | Sequence | self-aminoacylation (biotinyl-Phe-oxazolone) | self-aminoacylation (biotinyl-Ile-oxazolone) | self-aminoacylation (biotinyl-Met-oxazolone) | self-aminoacylation (biotinyl-Val-oxazolone) | self-aminoacylation (biotinyl-Leu-oxazolone) | self-aminoacylation (biotinyl-Trp-oxazolone)
1 | AUUCACCUAGGUUAUCGGGUG [Fam2.2 aminoacylation ribozyme variant] | 28 | 2.89 | 4.34 | 3.15 | 5.2 | 4.33
2 | AUUCACCUAGGUUAUCUGGUG [Fam2.2 aminoacylation ribozyme variant] | 35.2 | 3.02 | 5.29 | 2.95 | 5.96 | 4.49
3 | AUUCACCUAGGUUAUGGGGUG [Fam2.2 aminoacylation ribozyme variant] | 78.4 | 5.44 | 8.25 | 4.76 | 11.2 | 8.28
4 | AUUCACCUAGGUUUUCGGGUG [Fam2.2 aminoacylation ribozyme variant] | 34.3 | 3.03 | 4.67 | 3.5 | 5.21 | 4.06
5 | AUUCACCUAGUUAAUCGGGUG [Fam2.2 aminoacylation ribozyme variant] | 20 | 2.01 | 3.08 | 2.04 | 3.98 | 3.53
6 | AUUCACCUAGUUCAACGGGUG [Fam2.2 aminoacylation ribozyme variant] | 17.1 | 1.65 | 2.42 | 1.73 | 2.88 | 2.46
7 | AUUCACCUAGUUCAUCGGAUG [Fam2.2 aminoacylation ribozyme variant] | 0.611 | 0.963 | 1.03 | 0.951 | 0.819 | 0.827
8 | AUUCACCUAGUUCAUCGGUUG [Fam2.2 aminoacylation ribozyme variant] | 0.483 | 1.09 | 0.932 | 1.09 | 1.11 | 0.661
9 | AUUCACCUAGUUCAUCUGGUG [Fam2.2 aminoacylation ribozyme variant] | 10.4 | 1.56 | 1.88 | 1.5 | 2.44 | 2.4
10 | AUUCACCUAGUUCCUCGGGUG [Fam2.2 aminoacylation ribozyme variant] | 19.7 | 2.06 | 2.42 | 2.06 | 3.31 | 2.63
11 | AUUCACCUAGUUCGUCGGGUG [Fam2.2 aminoacylation ribozyme variant] | 3.17 | 1.14 | 1.26 | 1.23 | 1.32 | 1.15
12 | AUUCACCUAGUUUAUCGGGUG [Fam2.2 aminoacylation ribozyme variant] | 21.2 | 2.39 | 3.75 | 2.61 | 3.48 | 4.61
13 | AUUCACCUAUCUCAUCGGGUG [Fam2.2 aminoacylation ribozyme variant] | 19.4 | 2.18 | 3.1 | 2.09 | 4.13 | 3.46
14 | AUUCACCUAUGUAAUCGGGUG [Fam2.2 aminoacylation ribozyme variant] | 36.4 | 3.11 | 5.17 | 2.91 | 7.44 | 5.74
15 | AUUCACCUAUGUCAUAGGGUG [Fam2.2 aminoacylation ribozyme variant] | 1.08 | 1.36 | 1.46 | 1.15 | 1.75 | 0.856
16 | AUUCACCUAUGUCAUCAGGUG [Fam2.2 aminoacylation ribozyme variant] | 8.58 | 1.72 | 2.39 | 1.64 | 2.75 | 2.33
17 | AUUCACCUAUGUCAUCGGUUG [Fam2.2 aminoacylation ribozyme variant] | 0.455 | 0.902 | 0.874 | 0.872 | 0.919 | 0.892
18 | AUUCACCUAUGUCAUCUGGUG [Fam2.2 aminoacylation ribozyme variant] | 1.9 | 1.79 | 2.04 | 1.62 | 2.51 | 2.01
19 | AUUCACCUAUGUUAUCGGGUG [Fam2.2 aminoacylation ribozyme variant] | 41.3 | 3.19 | 5.62 | 3.43 | 7.49 | 5.74
20 | AUUCACCUCAGUCAUCGGGUG [Fam2.2 aminoacylation ribozyme variant] | 56.6 | 4.75 | 7.34 | 4.58 | 8.93 | 6.63
21 | AUUCACCUCGCUCAUCGGGUG [Fam2.2 aminoacylation ribozyme variant] | 13.5 | 2.57 | 3.42 | 2.74 | 3.61 | 3.01
